Measurements reported in article PMC4325132 (FEBS Open Bio, 2015).

How the values were obtained:
[1] = molecular target: mouse cardiac TnI K118C mutation (mouse, UniProt P48787 1-211, K118C); assay: ELISA
[2] = molecular target: mouse cardiac TnI A117G mutation (mouse, UniProt P48787 1-211, A117G); assay: ELISA
mouse cardiac TnI A117G mutation, sequence (P48787 whole entry A117G): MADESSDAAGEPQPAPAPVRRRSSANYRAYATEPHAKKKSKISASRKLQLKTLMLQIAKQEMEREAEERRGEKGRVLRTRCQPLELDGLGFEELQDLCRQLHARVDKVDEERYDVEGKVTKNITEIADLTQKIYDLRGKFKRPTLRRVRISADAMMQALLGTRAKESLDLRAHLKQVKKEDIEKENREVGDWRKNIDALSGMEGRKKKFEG

mouse cardiac TnI K118C mutation, sequence (P48787 whole entry K118C): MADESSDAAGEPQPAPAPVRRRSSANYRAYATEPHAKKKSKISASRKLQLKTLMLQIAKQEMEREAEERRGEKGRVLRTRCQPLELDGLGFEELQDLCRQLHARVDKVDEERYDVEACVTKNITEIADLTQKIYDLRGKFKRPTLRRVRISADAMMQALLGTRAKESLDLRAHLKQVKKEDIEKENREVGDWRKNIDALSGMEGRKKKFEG

binding result [1]: binds
binding result [2]: binds
B1: Chicken fast TnC (natural protein)
chain: not shown
